# Source: patent US20230243070A1 (Molecular Partners, published 2023)
# Biological target: T1, NYESOpMHC on T2 cells pulsed with NY-ESO-1-9V (157-165) peptide
# T1 construct: whole, on cells; also called NY-ESO pulsed cells; pulsed T2 cells
# Test: flow cytometry on T2 cells pulsed with NY-ESO-1-9V (157-165) peptide
binder,measurement,value
BP DARPin® protein #21/#22 (designed binder) GSDLGKKLLQAARAGQLDEVRELLKAGADVNAKDLIGVTPLHLAAFSGHLEIVEVLLKASADVNAKDVSGRTPLHVAAKHGHLEIVEVLLKAGADVNAKDLIGFTPLHLAAQFGHLEIVEVLLKAGADVNAQDKSGKTPADLAARAGHQDIAEVLQKAAGSPTPTPTTPTPTPTTPTPTPTGSDLGKKLLQAARAGQLDEVRELLKAGADVNAKDAIGFTPLHLAAFSGHLEIVEVLLKAGADVNAKDVAGYTPLHVAALYGHLVIVEVLLKAGADVNAKDKAGETPLHLAAFAGHLEIVEVLLKAGADVNAQDKSGKTPADLAARAGHQDIAEVLQKAA,EC50,1.4 nM
